Measured values as given in PMC11797554 (2024).

Experiments:
[1] = biological target: T1, SCRM KiDoK peptide (Arabidopsis, UniProt Q9LSE2, biotin); test: BLI; in presence of kC9; kinetic fit
[2] = biological target: T1, SCRM KiDoK peptide; test: BLI
[3] = biological target: T1, SCRM KiDoK peptide; test: BLI; in presence of kC9

Kd [1]: 1050 nM
koff [2]: 0.0327 s⁻¹
koff [3]: 0.0178 s⁻¹
B1: MPK6ΔNt (29 to 305) (domain or fragment)
chain: QMPGIENIPATLSHGGRFIQYNIFGNIFEVTAKYKPPIMPIGKGAYGIVCSAMNSETNESVAIKKIANAFDNKIDAKRTLREIKLLRHMDHENIVAIRDIIPPPLRNAFNDVYIAYELMDTDLHQIIRSNQALSEEHCQYFLYQILRGLKYIHSANVLHRDLKPSNLLLNANCDLKICDFGLARVTSESDFMTEYVVTRWYRAPELLLNSSDYTAAIDVWSVGCIFMELMDRKPLFPGRDHVHQLRLLMELIGTPSEEELEFLNENAKRYIRQLPPYPRQSITDKFPTVHPLAIDLIEKMLTFDPRRRITVLDALAHPYLNSLHDISDEPECTIPFNFDFENHALSEEQMKELIYREALAFNPEYQQ
